15 molecules from patent US20140363808, “[…] […] METHOD BASED ON […] WITHOUT TARGET IMMOBILIZATION AND THE […] OBTAINED FROM THE METHOD” (KOREA UNIVERSITY RESEARCH AND BUSINESS FOUNDATION, published 2014) can be followed below.

B1: G27 (ssDNA)
DNA: CGTACGGAATTCGCTAGCGGGTGGAGTACGTGGGGGTCATCCTGTGTGGGATCCGAGCTCCACGTG
B2: G32 (ssDNA)
DNA: CGTACGGAATTCGCTAGCGTGGACTGGCGGAAATCTTGGTATGCCCATGGATCCGAGCTCCACGTG
B3: G15 (ssDNA)
DNA: CGTACGGAATTCGCTAGCAGCCGGCGGGTGCTCAATGTTGGGGGTTGGGATCCGAGCTCCACGTG
B4: G56 (ssDNA)
DNA: CGTACGGAATTCGCTAGCCCGTGGGGTAGCGGGGTCGTGTGATATGTGGATCCGAGCTCCACGTG
B5: G21 (ssDNA)
DNA: CGTACGGAATTCGCTAGCGGGTTCGGGACGGATGAACGTGATAGCTGAGGATCCGAGCTCCACGTG
B6: G37 (ssDNA)
DNA: CGTACGGAATTCGCTAGCGGGCGATGTGCGGAATGTGGGATTGCGGGTGGATCCGAGCTCCACGTG
B7: G39 (ssDNA)
DNA: CGTACGGAATTCGCTAGCGGTTGCCGTGCGGCGTGCGAGTTGGGCCTTGGATCCGAGCTCCACGTG
B8: G4 (ssDNA)
DNA: CGTACGGAATTCGCTAGCGTGATGTGGGGGTACGCTCGTGGCAGGCTTGGATCCGAGCTCCACGTG
B9: G12 (ssDNA)
DNA: CGTACGGAATTCGCTAGCGGGTGCCGTGGCACGAGGCCGTGGTCCAGGGGATCCGAGCTCCACGTG
B10: G9 (ssDNA)
DNA: CGTACGGAATTCGCTAGCGGGGATGGGCCGCTCTGCAGAATGTTCTGTGGATCCGAGCTCCACGTG
B11: G26 (ssDNA)
DNA: CGTACGGAATTCGCTAGCATCGGGTGCAGAGTCGGAGCTAACGGCAGCGGATCCGAGCTCCACGTG
B12: G54 (ssDNA)
DNA: CGTACGGAATTCGCTAGCGTGGCGGGGCGCGGGTGCCGGAGTTGATGTGGATCCGAGCTCCACGTG
B13: G35 (ssDNA)
DNA: CGTACGGAATTCGCTAGCGGTGACGGACGTGGGGTGCACGAAGGGAGGGGATCCGAGCTCCACGTG
B14: G40 (ssDNA)
DNA: CGTACGGAATTCGCTAGCCGGGGTGGGAACCAGTCTTGCGCGGGTGACGGATCCGAGCTCCACGTG
B15: G55 (ssDNA)
DNA: CGTACGGAATTCGCTAGCGGACTGGAGTCTAGACCGGGTAGCTGTGGTGGATCCGAGCTCCACGTG

T1 sequence (P43490 whole entry, one chain of several): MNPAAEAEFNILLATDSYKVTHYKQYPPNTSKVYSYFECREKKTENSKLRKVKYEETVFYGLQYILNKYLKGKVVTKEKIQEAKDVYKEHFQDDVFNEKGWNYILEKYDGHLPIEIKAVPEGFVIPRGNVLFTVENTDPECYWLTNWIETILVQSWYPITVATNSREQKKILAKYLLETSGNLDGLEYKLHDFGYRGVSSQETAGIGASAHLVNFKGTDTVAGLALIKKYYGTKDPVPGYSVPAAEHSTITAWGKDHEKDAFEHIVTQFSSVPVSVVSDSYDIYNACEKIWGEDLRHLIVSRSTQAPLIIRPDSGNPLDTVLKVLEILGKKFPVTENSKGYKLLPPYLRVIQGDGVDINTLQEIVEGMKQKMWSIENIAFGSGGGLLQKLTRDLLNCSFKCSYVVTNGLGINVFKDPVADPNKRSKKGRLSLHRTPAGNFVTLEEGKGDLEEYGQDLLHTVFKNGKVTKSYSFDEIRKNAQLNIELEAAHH

The target in the first data set is T1, Nampt (nicotinamide phosphoribosyltransferase) (UniProt P43490 P43490:1-491). Put plainly: SPR; 200 nM Nampt. Conditions: tags: AdipoGen AG-40A-0031; chain copies: 2. As for the experimental part:
An experiment showing that 15 kinds of aptamers strongly bound to Nampt were not bound to other blood proteins but specifically bound to Nampt only was carried out by immobilizing aptamers onto a gold chip with a surface […] resonance device (SPR).
Firstly, a carboxyl group (—COOH) was formed on a surface of a gold chip with 50 mM of 3,3′-dithiodipropionic acid, and a self-assembly monolayer was formed with EDC/NHS. Then, streptavidin was immobilized thereon, and each aptamer bound to biotin was immobilized. Herein, 200 nM Nampt and the controls, i.e., RBP4, adiponectin, resistin, vaspin, and HAS, were reacted for 30 minutes in respective buffer solutions (100 mM NaCl, 2 mM MgCl₂, 5 mM KCl, 1 mM CaCl₂, and 20 mM Tris-Cl buffer solution containing 0.02% Tween 20, pH 7.6), and non-bound proteins were washed off with the same buffer solutions.
Background: In SPR one partner is held on a chip, and binding of the other changes the refractive index at the surface.
In the case of B1, the binding result is reported as “binds”.
Take B2: the binding result is “binds”.
The same measure, in the same setting: the entry for B3 is “binds”.
Take B4: the binding result is reported as “binds”.
For the molecule B5, the binding result was “binds”.
Regarding B6, the binding result is on record as “binds”.
With B7, the binding result was “binds”.
With B8, the binding result was “binds”.
Consider B9, for which the binding result is recorded as “binds”.
As for B10, the binding result is on record as “binds”.
With B11, the binding result was “binds”.
On the same count and under the same terms, the entry for B12 is “binds”.

The next data set has as its target T1, Nampt (nicotinamide …). The data set can be described thus: SPR; aptamer immobilized; same buffer pH 7.6. Conditions: tags: AdipoGen AG-40A-0031; chain copies: 2. As for the experimental part: (§1) Aptamers G35, G40, and G55 had the highest specificity and binding force among the 15 kinds of aptamers specifically bound to Nampt and produced in Example 1. Binding of these aptamers with respect to Nampt was analyzed. The aptamers were immobilized onto a gold chip in the same manner as described above, and Nampt at various concentrations of 20 nM to 400 nM was reacted for 30 minutes in buffer solutions (100 mM NaCl, 2 mM MgCl₂, 5 mM KCl, 1 mM CaCl₂, and 20 mM Tris-Cl buffer solution containing 0.02% Tween 20, pH 7.6). In order to obtain a dissociation constant, each reaction level was plotted by a nonlinear regression method and a single site saturation ligand binding method with Graphpad Prism 5.0. In this case, the equation Y=Bₘₐₓ*X̂h/(Kd̂h+X̂h) was used (y represents a saturation degree, Bₘₐₓ represents a maximal binding site, Kd represents a dissociation constant, X represents non-bound Nampt, and h represents a hill slope constant).
For B13, binding was put at a Kd of 117 nM.
Still for that read-out and setting: as for B14, the figure is 114 nM.

The target in the next data set is T1, Nampt (nicotinamide …). Put plainly: SPR; aptamer immobilized; 100 mM NaCl, 2 mM MgCl2, 5 mM KCl, 1 mM CaCl2, 20 mM Tris, 0.02% Tween 20, pH 7.6. The conditions noted are these: tags: AdipoGen AG-40A-0031; chain copies: 2. As for the experimental part:
as §1
With B15, binding was characterised by a dissociation constant (Kd) of 71.7 nM.
